Measured values taken from article PMC9865707, “Structural Insights of the DciA Helicase Loader in Its Relationship with DNA”.

What was measured:
VcDnaB [1] = target: T1, VcDnaB (Vibrio cholerae, UniProt A0A085R2T8 1-468); assay: BLI; 1 mM ATP?; 100 nM VcDnaB + 25-100 nM VcDciA; loading increased, maximal at 25 nM; BLI: 50 mM Hepes pH 7.0, 150 mM NaCl, 0.1% Tween, 1 mM ATP, temperature not stated; NMR: 20 mM phosphate pH 5.6, 50 mM NaCl, 303 K (also 293 K), 26 uM protein; conditions: protein: recombinant; chain copies: 6; label: 5' biotin
VcDnaB [2] = target: T1, VcDnaB; assay: BLI; ATP; + VcDciA 25-100 nM; comparable to ssDNA; BLI: 50 mM Hepes pH 7.0, 150 mM NaCl, 0.1% Tween, 1 mM ATP, temperature not stated; NMR: 20 mM phosphate pH 5.6, 50 mM NaCl, 303 K (also 293 K), 26 uM protein; conditions: protein: recombinant; chain copies: 6; label: 5' biotin on strand 1; fork, 38 nt hybridized zone; non-complementary tails (strand 1 3' side, strand 2 5' side); 5' overhang 2 nt (AA) of strand 1

B1: ssDNA oso23 (ssDNA)
DNA: AAGCGTGGTGAAACCTACCTCTGATTCGAAACCTTCACTTTACGTGGTCTGGCGTGGTGAATGTTCGTCGGCGTGCTCGA
Question: Does B1 bind (VcDnaB [1])?
Answer: binds

B2: foDNA oso23/oso18 (dsDNA)
DNA 1: AAGCGTGGTGAAACCTACCTCTGATTCGAAACCTTCACTTTACGTGGTCTGGCGTGGTGAATGTTCGTCGGCGTGCTCGA
DNA 2: CCAGGAATACGGCAAGTTGGAGGCCGGGCTGGATGGAGACTAAGCTTTGGAAGTGAAGGTTTCGAATCAGAGGTAGGTTTCACCACGC
Question: Does B2 bind (VcDnaB [2])?
Answer: binds
